Data: patent publication US20090203530A1, “Polymer evolution via templated synthesis” (priority 2005, published 2009)

Key:
papain [1] = molecular target: T1, papain (Carica papaya, UniProt P00784); test: Fluorescence polarization-based papain binding assay; settings: BFL-labelled controls; varying concentrations of papain
T1 construct: purchased Sigma-Aldrich
T1 sequence (P00784 134-345): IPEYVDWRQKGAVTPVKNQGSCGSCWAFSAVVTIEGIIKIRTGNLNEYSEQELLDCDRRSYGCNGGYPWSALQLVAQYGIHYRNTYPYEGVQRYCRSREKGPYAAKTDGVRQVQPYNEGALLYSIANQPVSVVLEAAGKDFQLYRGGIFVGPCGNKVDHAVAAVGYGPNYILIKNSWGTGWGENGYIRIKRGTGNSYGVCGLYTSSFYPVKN
Description: Purified PNA 18-mers prepared as described above were reacted with BODIPY-fluorescein succinamidyl ester (BFL-SE, Molecular Probes). For each labelling reaction, 25 μL of a 250-400 μM stock solution of PNA in H2O was mixed with 25 μL 0.2 M sodium bicarbonate (pH 8.0) plus 2.5 μL of a 20 mg/mL solution of BFL-SE in DMSO. After four hours at 25° C., 50 μL DMSO was added, and the labelling reaction was incubated for an additional 4 hours. The labelled product was purified by reverse-phase HPLC as described above. The addition of the BFL fluorophore on the N-terminal primary amine typically delayed the elution time of the PNA by ˜5 min, and the absorption of the eluted peak was monitored both at 260 nm and at 470 nm. Masses of labelled peptides were confirmed by MALDI mass spectrometry, as follows:
Fluorescence polarization-based papain affinity assays were carried out as follows. BFL-labelled PNA was used at concentrations between 5 nM and 10 nM. […] After the binding reactions were equilibrated (4 hours at 25° C.), they were loaded onto a Nunc opaque black 384-well plate, and fluorescence polarization was measured using the Analyst AD system (Molecular Devices) with a fluorescein filter. Fluorescence polarization data in FIGS. 5B and 6C is shown as the change in fluorescence polarization (calculated relative to the output in the absence of protein) as a function of papain concentration. […]

papain [2] = molecular target: T1, papain; test: Enrichment assay by papain affinity selection of translated template mixtures; assay type: binding
Description: The methods used for in vitro papain affinity selection have been reported previously (Giesen (1998) NUCLEIC ACIDS RES. 26, 5004-5006). Papain-conjugated sepharose beads (50 μL) were prepared according to this protocol and combined with […] of translated and displaced PNA library. After 4 hours at 4° C. with slow mixing, the beads were filtered, washed three times with high salt buffer (50 mM Tris pH 7.5, 0.5 M NaCl), once with low salt buffer (50 mM Tris pH 7.5, 0.1 M NaCl), and resuspended in 50 μL papain selection buffer (50 mM Tris pH 7.5, 100 mM NaCl, 1 mM EDTA). One fifth of the beads were removed for PCR as described below.
The remaining beads (40 μL) were heated for 15 min at 95° C., cooled to 60° C., supplemented with an equal volume of fresh papain-linked sepharose beads; cooled rapidly to 4° C., and the selection was repeated. This protocol was repeated three times (four rounds total) for the first-generation selection (FIG. 4A) and was repeated twice (three rounds total) for the second-generation selection (FIG. 6A). After each round of affinity selection, PCR was performed using one fifth of the total beads. Filtered beads were resuspended in 18 μL NEB buffer 4 with BSA, 1 μL Hha I, and 1 μL HinPI I (all restriction endonucleases purchased from New England Biolabs). Reactions were incubated for 1.5 hours at 37° C., then added directly into 80 μL PCR master mix containing 5 μL Taq buffer, 5 μL 25 mM MgCl2, 1 μL 100 μM primer 1, 1 μL 100 μM primer 2, 1 μL 25 mM dNTPs, and 1 μL Taq DNA polymerase and 54 μL H2O. Primer sequences are as follows:
For the enrichment experiments described in FIG. 5A, […] total template:mixture (500:1 M1 template:P1 template; or 500:1 U1 template:P1 template) was translated as described above using library translation conditions. The individual template sequences are as follows:
The translated products were displaced as described above, subjected to three rounds of selection against papain as described above, and the resulting bound DNA templates were digested and amplified by PCR as described above. […]

CC1=CC(C)=[N+]2C1=Cc1ccc(CCC(=O)NCCN)n1[B-]2(F)F [BFL fluorophore, BFL-ethylenediamine]
papain affinity (fluorescence polarization) (papain [1]): did not bind papain

B1: P1 translation product: PNA 40-mer selected for papain binding, covalently linked to its DNA template (SEQ ID NO: 16) (conjugate)
DNA: TGCGACGGTGCGCACCGTCGCAAGCCATTCATGCATGCACCCAGGCATGCATTCATTCATGCGGACAAGGTGCGCACCTTGTCC
modifications: DNA, backbone and methylation of C not given here; DNA template covalently linked to PNA translation product, further chemistry not fully specified
enrichment after papain affinity selection (papain [2]; 500:1 M1:P1 template mixture, translated, displaced, three rounds of selection, PCR and restriction digestion): ~500 fold | enrichment after papain affinity selection (papain [2]; 500:1 mixture of U1 (unrelated):P1 templates): 500 fold

B2: U1: unrelated library sequence, translated from template SEQ ID NO: 18 (conjugate)
DNA: TGCGACGGTGCGCACCGTCGCAAGTCAGTCACCCAATCACTCACGCATCCAGTCACCCAACCGGACAAGGTGCGCACCTTGTCC
modifications: DNA, backbone and methylation of C not given here; DNA template covalently linked to PNA translation product, further chemistry not fully specified
enrichment after papain affinity selection (papain [2]; 500:1 ratio of M1:U1 DNA templates, translation, displacement, selection): no detectable enrichment
